Measurements from IntAct's records for PubMed 18761085.

B1: Ras GTPase-activating protein 1 (Homo sapiens), P20936 (parent)
chain: MMAAEAGSEEGGPVTAGAGGGGAAAGSSAYPAVCRVKIPAALPVAAAPYPGLVETGVAGTLGGGAALGSEFLGAGSVAGALGGAGLTGGGTAAGVAGAAAGVAGAAVAGPSGDMALTKLPTSLLAETLGPGGGFPPLPPPPYLPPLGAGLGTVDEGDSLDGPEYEEEEVAIPLTAPPTNQWYHGKLDRTIAEERLRQAGKSGSYLIRESDRRPGSFVLSFLSQMNVVNHFRIIAMCGDYYIGGRRFSSLSDLIGYYSHVSCLLKGEKLLYPVAPPEPVEDRRRVRAILPYTKVPDTDEISFLKGDMFIVHNELEDGWMWVTNLRTDEQGLIVEDLVEEVGREEDPHEGKIWFHGKISKQEAYNLLMTVGQVCSFLVRPSDNTPGDYSLYFRTNENIQRFKICPTPNNQFMMGGRYYNSIGDIIDHYRKEQIVEGYYLKEPVPMQDQEQVLNDTVDGKEIYNTIRRKTKDAFYKNIVKKGYLLKKGKGKRWKNLYFILEGSDAQLIYFESEKRATKPKGLIDLSVCSVYVVHDSLFGRPNCFQIVVQHFSEEHYIFYFAGETPEQAEDWMKGLQAFCNLRKSSPGTSNKRLRQVSSLVLHIEEAHKLPVKHFTNPYCNIYLNSVQVAKTHAREGQNPVWSEEFVFDDLPPDINRFEITLSNKTKKSKDPDILFMRCQLSRLQKGHATDEWFLLSSHIPLKGIEPGSLRVRARYSMEKIMPEEEYSEFKELILQKELHVVYALSHVCGQDRTLLASILLRIFLHEKLESLLLCTLNDREISMEDEATTLFRATTLASTLMEQYMKATATQFVHHALKDSILKIMESKQSCELSPSKLEKNEDVNTNLTHLLNILSELVEKIFMASEILPPTLRYIYGCLQKSVQHKWPTNTTMRTRVVSGFVFLRLICPAILNPRMFNIISDSPSPIAARTLILVAKSVQNLANLVEFGAKEPYMEGVNPFIKSNKHRMIMFLDELGNVPELPDTTEHSRTDLSRDLAALHEICVAHSDELRTLSNERGAQQHVLKKLLAITELLQQKQNQYTKTNDVR
partner: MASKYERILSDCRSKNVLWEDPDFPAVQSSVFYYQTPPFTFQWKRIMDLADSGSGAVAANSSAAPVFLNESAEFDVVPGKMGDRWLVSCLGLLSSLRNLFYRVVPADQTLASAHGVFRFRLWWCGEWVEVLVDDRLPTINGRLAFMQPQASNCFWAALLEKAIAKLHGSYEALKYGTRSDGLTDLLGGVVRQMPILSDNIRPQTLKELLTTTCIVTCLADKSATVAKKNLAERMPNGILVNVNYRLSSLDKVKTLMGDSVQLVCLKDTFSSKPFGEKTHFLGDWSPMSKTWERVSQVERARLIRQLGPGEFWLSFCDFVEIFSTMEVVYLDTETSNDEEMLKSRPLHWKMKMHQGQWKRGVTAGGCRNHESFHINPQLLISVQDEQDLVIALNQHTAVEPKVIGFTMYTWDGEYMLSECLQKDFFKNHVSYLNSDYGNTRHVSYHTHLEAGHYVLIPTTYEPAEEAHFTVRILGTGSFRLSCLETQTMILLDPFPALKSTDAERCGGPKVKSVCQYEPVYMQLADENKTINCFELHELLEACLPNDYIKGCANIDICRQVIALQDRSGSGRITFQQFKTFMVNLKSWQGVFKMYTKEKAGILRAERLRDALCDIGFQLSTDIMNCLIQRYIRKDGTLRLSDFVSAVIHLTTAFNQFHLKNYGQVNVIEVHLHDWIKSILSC

Variants of: B1
Conditions: with canc_drome CalpC

| effect of a mutation on the interaction | Variant |
| --- | --- |
| disrupting interaction | W317K |
